Measurements taken from US20090136509A1, “Use of Toll-Like Receptor 4 Antagonists for the Treatment or Prevention of Osteoarthritic Conditions” (priority 2007, published 2009).

How the values were obtained:
[1] = target: T1, TLR4 (Homo sapiens, UniProt O00206+Q9Y6Y9); conditions: positive control; stated as known; cited from earlier work
T1 construct: alginate cultures of human chondrocytes from healthy volunteers were supplied by Articular Engineering, LLC; host or cells: primary human chondrocytes in alginate culture (healthy volunteers; osteoarthritis patients)

[2] = target: T1, TLR4; experiment: 35S incorporation into S-GAG in alginate cultures of human chondrocytes from osteoarthritis patients; type: cell-based
Protocol: For these experiments, alginate cultures of human chondrocytes from healthy volunteers were supplied by Articular Engineering, LLC (Northbrook, Ill.) and were maintained as directed by the supplier. “Control” chondrocytes were untreated. “LPS” treated chondrocytes were treated with LPS at a concentration of 1 μg/ml in the media for three days starting at Day 2. “LPS+polymixin B” treated chondrocytes were treated for 1 hour with the […] polymixin B, which is a TLR4 antagonist, at a concentration of 20 μg/ml followed by treatment with the TLR4 receptor agonist LPS at a concentration of 1 μg/ml in the media for three days starting at Day 2. […] On Day 5 alginate bead chondrocyte cell cultures were ^35S labelled overnight and ^35S incorporation into S-GAG (sulfated glycosaminoglycan) was then determined as described by Bobacz et al. 56 Arthritis. […]
For these experiments, alginate cultures of human chondrocytes from osteoarthritis patients were supplied by Articular Engineering, LLC (Northbrook, Ill.) and were maintained as directed by the supplier. […] At Day 5 alginate bead chondrocyte cell cultures were ^35S labelled overnight and ^35S incorporation into S-GAG (sulfated glycosaminoglycan) was then determined as described by Bobacz et al. 56 Arthritis. […]

[3] = target: T1, TLR4; experiment: 35S incorporation into S-GAG in alginate cultures of human chondrocytes from healthy volunteers; type: cell-based
Protocol: For these experiments, alginate cultures of human chondrocytes from healthy volunteers were supplied by Articular Engineering, LLC (Northbrook, Ill.) and were maintained as directed by the supplier. “Control” chondrocytes were untreated. “LPS” treated chondrocytes were treated with LPS at a concentration of 1 μg/ml in the media for three days starting at Day 2. “LPS+polymixin B” treated chondrocytes were treated for 1 hour with the […] polymixin B, which is a TLR4 antagonist, at a concentration of 20 μg/ml followed by treatment with the TLR4 receptor agonist LPS at a concentration of 1 μg/ml in the media for three days starting at Day 2. “LPS+TLR4-ECD” treated chondrocytes were treated starting at Day 0 with the TLR4 antagonist TLR4-ECD at a concentration in the media of 50 μg/ml followed by treatment with LPS at a concentration of 1 μg/ml in the media for three days starting at Day 2. TLR4-ECD is a TLR4 receptor antagonist comprising the extracellular domain of hTLR4A and the Fc domain of an IgG1 isotype antibody. TLR4-ECD has the amino acid sequence shown in SEQ ID NO: 4 and is encoded by the cDNA having the nucleic acid sequence shown in SEQ ID NO: 3. […] On Day 5 alginate bead chondrocyte cell cultures were ^35S labelled overnight and ^35S incorporation into S-GAG (sulfated glycosaminoglycan) was then determined as described by Bobacz et al. 56 Arthritis. […]

T1 sequence (O00206 24-839): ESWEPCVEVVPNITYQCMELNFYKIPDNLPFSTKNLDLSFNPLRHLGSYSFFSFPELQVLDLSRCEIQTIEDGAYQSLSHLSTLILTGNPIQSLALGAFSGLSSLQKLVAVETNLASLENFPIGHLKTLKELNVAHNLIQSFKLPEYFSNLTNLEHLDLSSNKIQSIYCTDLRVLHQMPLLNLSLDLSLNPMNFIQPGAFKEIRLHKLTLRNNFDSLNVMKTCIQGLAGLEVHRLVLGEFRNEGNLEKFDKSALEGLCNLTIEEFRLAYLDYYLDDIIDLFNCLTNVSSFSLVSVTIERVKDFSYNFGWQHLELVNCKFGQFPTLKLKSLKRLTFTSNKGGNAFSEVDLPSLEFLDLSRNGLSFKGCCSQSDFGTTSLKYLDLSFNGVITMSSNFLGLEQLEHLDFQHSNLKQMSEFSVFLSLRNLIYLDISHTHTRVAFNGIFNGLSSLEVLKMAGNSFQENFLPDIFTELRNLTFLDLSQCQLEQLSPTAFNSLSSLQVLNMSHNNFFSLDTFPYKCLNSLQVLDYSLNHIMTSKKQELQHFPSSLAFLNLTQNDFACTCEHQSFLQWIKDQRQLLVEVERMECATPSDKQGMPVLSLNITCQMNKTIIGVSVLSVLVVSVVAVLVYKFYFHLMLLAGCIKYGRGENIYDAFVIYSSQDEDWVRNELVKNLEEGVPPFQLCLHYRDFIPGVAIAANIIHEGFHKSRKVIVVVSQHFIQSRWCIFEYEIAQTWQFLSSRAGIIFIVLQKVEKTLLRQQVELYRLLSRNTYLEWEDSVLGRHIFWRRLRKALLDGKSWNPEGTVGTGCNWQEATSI
T1 sequence (Q9Y6Y9 17-160 limits assumed): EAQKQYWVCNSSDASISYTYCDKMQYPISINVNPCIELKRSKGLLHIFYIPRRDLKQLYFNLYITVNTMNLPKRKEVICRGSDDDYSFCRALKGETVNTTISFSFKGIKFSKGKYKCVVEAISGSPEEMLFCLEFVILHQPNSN

Substance | sGAG synthesis by human chondrocytes [1] | S-GAG synthesis ([2]; hTLR4-ECD 50 μg/ml from Day 0 + LPS 1 μg/ml from Day 2, relative to LPS alone (FIG. 19)) | S-GAG synthesis ([2]; hTLR4-ECD alone 50 μg/ml from Day 0, relative to LPS alone (FIG. 19)) | S-GAG synthesis ([3]; hTLR4-ECD 50 μg/ml from Day 0 + LPS 1 μg/ml from Day 2, relative to LPS alone (FIG. 18)) | S-GAG synthesis ([3]; hTLR4-ECD alone 50 μg/ml from Day 0, relative to LPS alone (FIG. 18))
IGF1: Insulin-like Growth Factor 1, used as a positive control | stimulate sGAG synthesis |  |  |  | 
hTLR4-ECD: TLR4 receptor antagonist comprising the extracellular domain of hTLR4A and the Fc domain of an IgG1 isotype antibody; preparations contained approximately 25% MD2 |  | increased S-GAG synthesis relative to chondrocytes from osteoarthritis patients treated with LPS alone | increased S-GAG synthesis relative to chondrocytes from osteoarthritis patients treated with LPS alone | increased S-GAG synthesis relative to chondrocytes treated with LPS alone | increased S-GAG synthesis relative to chondrocytes treated with LPS alone
